Laboratory results as given in publication PMC9574498.
Values joined by “and” are separate entries in the source; they are usually repeats but may differ in a detail not shown here. Equal values may be shown once.

Target: human P2X7R ballast domain (P2X7BD, residues 395–595) (human) (UniProt Q99572)
Test: cross-linking

Chain of human P2X7R ballast domain (P2X7BD, residues 395–595) (human) (Q99572 395-595): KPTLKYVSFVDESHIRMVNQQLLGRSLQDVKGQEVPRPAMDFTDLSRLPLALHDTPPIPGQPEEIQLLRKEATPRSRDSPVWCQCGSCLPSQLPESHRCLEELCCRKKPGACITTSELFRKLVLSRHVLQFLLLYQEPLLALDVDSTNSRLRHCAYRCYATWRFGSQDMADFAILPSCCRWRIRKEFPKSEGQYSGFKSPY

- stoichiometry N (Ca^2+-CaM per P2X7BD): 1 and 2
Substance: human calmodulin (Ca^2+-CaM; apo-CaM in EDTA) (from UniProt P0DP23 1-149) (natural protein)
